Columns and labels:
Fibrinogen = Fibrinogen (UniProt P02671)
[1] = biological target: Ecarin-activatable E-WE Prethrombin-2 (W215A/E217A/N282D/P283G)

UniProt P02671, sequence (P02671 20-629, chain 1 of 3): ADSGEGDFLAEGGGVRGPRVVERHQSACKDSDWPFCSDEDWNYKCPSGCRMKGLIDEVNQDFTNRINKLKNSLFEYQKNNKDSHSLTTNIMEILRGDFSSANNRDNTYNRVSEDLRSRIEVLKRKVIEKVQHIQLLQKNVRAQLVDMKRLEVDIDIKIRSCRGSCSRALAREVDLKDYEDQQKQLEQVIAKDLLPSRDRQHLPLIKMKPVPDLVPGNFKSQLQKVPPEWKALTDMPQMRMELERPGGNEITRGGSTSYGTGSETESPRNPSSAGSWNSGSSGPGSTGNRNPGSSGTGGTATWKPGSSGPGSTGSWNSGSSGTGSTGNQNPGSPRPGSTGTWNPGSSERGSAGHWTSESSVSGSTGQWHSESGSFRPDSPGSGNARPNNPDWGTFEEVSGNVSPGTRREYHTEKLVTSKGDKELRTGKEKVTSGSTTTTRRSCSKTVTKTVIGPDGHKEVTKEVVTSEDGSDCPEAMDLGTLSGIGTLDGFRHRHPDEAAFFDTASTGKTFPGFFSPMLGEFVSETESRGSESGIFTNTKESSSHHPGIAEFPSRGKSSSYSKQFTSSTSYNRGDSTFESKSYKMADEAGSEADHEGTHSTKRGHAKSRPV
UniProt P02671, sequence (chain, as listed by the source, chain 2 of 3): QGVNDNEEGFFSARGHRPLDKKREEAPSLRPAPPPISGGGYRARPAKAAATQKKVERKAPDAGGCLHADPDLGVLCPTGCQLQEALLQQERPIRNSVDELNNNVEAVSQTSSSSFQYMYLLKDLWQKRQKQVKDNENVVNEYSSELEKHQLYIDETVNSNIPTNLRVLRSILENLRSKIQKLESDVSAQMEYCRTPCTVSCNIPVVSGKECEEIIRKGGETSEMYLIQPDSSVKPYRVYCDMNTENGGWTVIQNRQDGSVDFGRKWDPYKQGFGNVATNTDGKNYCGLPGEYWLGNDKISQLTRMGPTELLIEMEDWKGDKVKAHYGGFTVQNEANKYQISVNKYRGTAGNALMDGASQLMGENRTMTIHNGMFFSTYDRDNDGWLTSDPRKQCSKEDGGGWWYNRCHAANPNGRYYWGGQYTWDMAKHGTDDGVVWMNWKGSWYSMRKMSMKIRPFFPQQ
UniProt P02671, sequence (chain, as listed by the source, chain 3 of 3): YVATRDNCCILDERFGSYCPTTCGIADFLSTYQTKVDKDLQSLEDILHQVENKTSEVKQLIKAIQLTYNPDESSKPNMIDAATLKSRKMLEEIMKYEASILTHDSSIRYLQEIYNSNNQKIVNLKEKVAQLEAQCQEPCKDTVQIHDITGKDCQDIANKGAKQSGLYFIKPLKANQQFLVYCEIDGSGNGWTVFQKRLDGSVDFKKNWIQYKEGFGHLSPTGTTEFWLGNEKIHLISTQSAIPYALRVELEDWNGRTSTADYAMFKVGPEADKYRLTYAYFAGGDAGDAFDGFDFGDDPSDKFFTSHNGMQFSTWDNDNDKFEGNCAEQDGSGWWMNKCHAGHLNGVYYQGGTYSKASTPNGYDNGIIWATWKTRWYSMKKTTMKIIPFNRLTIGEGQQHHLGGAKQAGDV

E. coli-derived recombinant E-WE thrombin (W215A/E217A), prepared from E-WE prethrombin-2 expressed in E. coli
specificity toward fibrinogen (Fibrinogen): consistently shows lower specificity toward fibrinogen compared to the BHK-expressed construct

WE thrombin (W215A/E217A) prepared from WE prethrombin-1 expressed in BHK cells
activity toward fibrinogen (Fibrinogen): BHK produces a construct with significantly higher activity toward FPR and fibrinogen

B1: Echis carinatus snake venom prothrombin activator (ecarin) (protein)
chain: VPPHERKFEKKFIELVVVVDHSMVTKYNNDSTAIRTWIYEMLNTVNEIYLPFNIRVALVGLEFWCNGDLINVTSTADDTLHSFGEWRASDLLNRKRHDHAQLLTNVTLDHSTLGITFVYGMCKSDRSVELILDYSNITFNMAYIIAHEMGHSLGMLHDTKFCTCGAKPCIMFGKESIPPPKEFSSCSYDQYNKYLLKYNPKCILDPPLRKDIASPAVCGNEIWEEGEECDCGSPADCRNPCCDAATCKLKPGAECGNGECCDKCKIRKAGTECRPARDDCDVAEHCTGQSAECPRNEFQRNGQPCLNNSGYCYNGDCPIMLNQCIALFSPSATVAQDSCFQRNLQGSYYGYCTKEIGYYGKRFPCAPQDVKCGRLYCLDNSFKKNMRCKNDYSYADENKGIVEPGTKCEDGKVCINRKCVDVNTAY
proteolytic cleavage at the engineered ecarin site [1]: Cleavage also occurred at the engineered ecarin site that had been introduced preceding the A chain | proteolytic cleavage between the A and B chains [1]: The expected cleavage took place between the A and B chains to form an A chain-extended E-WE thrombin

— US20120164129
